Assay results reported in publication PMC5384083.

B1: T7 tagged FoxM1 wild type (WT) [not stated] / Retinoblastoma protein (Rb), endogenous [human (endogenous in MCF7 and MDA-MB-453)] (parent)
chain 1: MKTSPRRPLILKRRRLPLPVQNAPSETSEEEPKRSPAQQESNQAEASKEVAESNSCKFPAGIKIINHPTMPNTQVVAIPNNANIHSIITALTAKGKESGSSGPNKFILISCGGAPTQPPGLRPQTQTSYDAKRTEVTLETLGPKPAARDVNLPRPPGALCEQKRETCADGEAAGCTINNSLSNIQWLRKMSSDGLGSRSIKQEMEEKENCHLEQRQVKVEEPSRPSASWQNSVSERPPYSYMAMIQFAINSTERKRMTLKDIYTWIEDHFPYFKHIAKPGWKNSIRHNLSLHDMFVRETSANGKVSFWTIHPSANRYLTLDQVFKQQKRPNPELRRNMTIKTELPLGARRKMKPLLPRVSSYLVPIQFPVNQSLVLQPSVKVPLPLAASLMSSELARHSKRVRIAPKVLLAEEGIAPLSSAGPGKEEKLLFGEGFSPLLPVQTIKEEEIQPGEEMPHLARPIKVESPPLEEWPSPAPSFKEESSHSWEDSSQSPTPRPKKSYSGLRSPTRCVSEMLVIQHRERRERSRSRRKQHLLPPCVDEPELLFSEGPSTSRWAAELPFPADSSDPASQLSYSQEVGGPFKTPIKETLPISSTPSKSVLPRTPESWRLTPPAKVGGLDFSPVQTSQGASDPLPDPLGLMDLSTTPLQSAPPLESPQRLLSSEPLDLISVPFGNSSPSDIDVPKPGSPEPQVSGLAANRSLTEGLVLDTMNDSLSKILLDISFPGLDEDPLGPDNINWSQFIPELQ
chain 2: MPPKTPRKTAATAAAAAAEPPAPPPPPPPEEDPEQDSGPEDLPLVRLEFEETEEPDFTALCQKLKIPDHVRERAWLTWEKVSSVDGVLGGYIQKKKELWGICIFIAAVDLDEMSFTFTELQKNIEISVHKFFNLLKEIDTSTKVDNAMSRLLKKYDVLFALFSKLERTCELIYLTQPSSSISTEINSALVLKVSWITFLLAKGEVLQMEDDLVISFQLMLCVLDYFIKLSPPMLLKEPYKTAVIPINGSPRTPRRGQNRSARIAKQLENDTRIIEVLCKEHECNIDEVKNVYFKNFIPFMNSLGLVTSNGLPEVENLSKRYEEIYLKNKDLDARLFLDHDKTLQTDSIDSFETQRTPRKSNLDEEVNVIPPHTPVRTVMNTIQQLMMILNSASDQPSENLISYFNNCTVNPKESILKRVKDIGYIFKEKFAKAVGQGCVEIGSQRYKLGVRLYYRVMESMLKSEEERLSIQNFSKLLNDNIFHMSLLACALEVVMATYSRSTSQNLDSGTDLSFPWILNVLNLKAFDFYKVIESFIKAEGNLTREMIKHLERCEHRIMESLAWLSDSPLFDLIKQSKDREGPTDHLESACPLNLPLQNNHTAADMYLSPVRSPKKKGSTTRVNSTANAETQATSAFQTQKPLKSTSLSLFYKKVYRLAYLRLNTLCERLLSEHPELEHIIWTLFQHTLQNEYELMRDRHLDQIMMCSMYGICKVKNIDLKFKIIVTAYKDLPHAVQETFKRVLIKEEEYDSIIVFYNSVFMQRLKTNILQYASTRPPTLSPIPHIPRSPYKFPSSPLRIPGGNIYISPLKSPYKISEGLPTPTKMTPRSRILVSIGESFGTSEKFQKINQMVCNSDRVLKRSAEGSNPPKPLKKLRFDIEGSDEADGSKHLPGESKFQQKLAEMTSTRTRMQKQKMNDSMDTSNKEEK
B2: T7 tagged FoxM1 wild type (WT) [not stated] / DNMT3b, endogenous [human (endogenous in MCF7 and MDA-MB-453)] (parent)
chain 1: B1 chain 1
chain 2: not shown

Variants of: B1
Assay: co-immunoprecipitation (IP T7, western blot Rb), band intensity given
Conditions: with Retinoblastoma protein (Rb), MDA-MB-453 cells, cell lysates (800 ug)

| response | Variant |
| --- | --- |
| 0.09 | chain 1 S715D S724D |
| 22.8 | chain 1 T596A |

Variants of: B2
Assay: co-immunoprecipitation (IP T7, western blot DNMT3b), band intensity given
Conditions: with DNMT3b, MDA-MB-453 cells

| response | Variant |
| --- | --- |
| 132 | chain 1 T596A |
| 10 | chain 1 S715D S724D |
